Experimental data taken from patent US20140088008A1 (Amgen, published 2014).

Experiments:
myostatin [1] = molecular target: T1, myostatin (UniProt O14793 267-375, limits assumed); assay: BIAcore solution competition: soluble receptor titrated against 4 nM myostatin, free myostatin captured on immobilized human ActRIIB-ECD/Fc (R&D Systems) on a CM5 chip
T1 construct: mature; also called GDF-8; growth/differentiation factor 8
T1 sequence (looked up): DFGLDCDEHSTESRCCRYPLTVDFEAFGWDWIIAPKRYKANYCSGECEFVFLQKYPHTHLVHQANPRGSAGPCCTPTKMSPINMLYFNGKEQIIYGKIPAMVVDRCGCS
Description: Blocking assays were carried out using immobilized human ActRIIB-ECD/Fc (R&D Systems, Minneapolis, Mn.) on a CM5 chip (Biacore, Inc., Piscataway, N.J.) in the presence and absence of each of the two soluble receptors ActRIIB-ECD/Fc and ActRIIB5/Fc using the BIAcore® assay system according to the manufacturer's instructions.
100% myostatin binding signal was determined in the absence of receptor in solution. Various concentrations of the soluble receptors were diluted in sample buffer and incubated with 4 nM myostatin before being injected over the receptor surface. Since only free myostatin molecules were able to bind to the chip, a decreased binding response with increasing concentration of the receptors indicated binding of the receptors to myostatin in solution. Plotting the binding signal vs. concentration of soluble receptor, ActRIIB-ECD/Fc and ActRIIB5/Fc were calculated to have an EC₅₀ of approximately 18 nM and 7 nM respectively.

activin A = molecular target: T2, activin A (UniProt P08476 311-426); assay: cell-based or functional assay
T2 sequence (looked up): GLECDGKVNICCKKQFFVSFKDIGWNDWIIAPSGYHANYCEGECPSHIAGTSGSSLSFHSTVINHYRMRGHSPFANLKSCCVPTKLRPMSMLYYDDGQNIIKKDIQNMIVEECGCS

myostatin [2] = molecular target: T1, myostatin; assay: cell-based or functional assay
GDF-11 = molecular target: T3, GDF-11 (UniProt O95390 299-407); assay: cell-based or functional assay
T3 sequence (looked up): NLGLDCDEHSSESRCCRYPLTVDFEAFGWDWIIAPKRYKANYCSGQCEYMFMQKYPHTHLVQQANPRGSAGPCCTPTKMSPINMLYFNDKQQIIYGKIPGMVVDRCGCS

B1: huActRIIB5/Fc (Fc fusion)
chain: SGRGEAETRECIYYNANWELERTNQSGLERCEGEQDKRLHCYASWRNSSGTIELVKKGCWLDDFNCYDRQECVATEENPQVYFCCCEGNFCNERFTHLPEAGGPEGPWASTTIPSGGPEATAAAGDQGSGALWLCLEGPAHEGGGGGGGG
notes: also called human activin type IIB5 receptor Fc fusion; not shown: human IgG1 Fc
Myostatin [1]
  EC50: ~7 nM
Activin A
  activin A neutralizing activity IC50 (nM) vs. 20 nM activin; pMARE-luc C2C12 luciferase reporter: 156 nM
Myostatin [2]
  myostatin-neutralizing activity IC50 (nM) vs. 4 nM myostatin; pMARE-luc C2C12 luciferase reporter: 29.7 nM
GDF-11
  GDF-11-neutralizing activity IC50 (nM) vs. 4 nM GDF-11; pMARE-luc C2C12 luciferase reporter: 90.6 nM

B2: huActRIIB-ECD/Fc (Fc fusion)
chain: SGRGEAETRECIYYNANWELERTNQSGLERCEGEQDKRLHCYASWRNSSGTIELVKKGCWLDDFNCYDRQECVATEENPQVYFCCCEGNFCNERFTHLPEAGGPEV
notes: not shown: human IgG1 Fc, fused directly (no linker)
Myostatin [1]
  EC50: ~18 nM
Activin A
  activin A neutralizing activity IC50 (nM) vs. 20 nM activin; pMARE-luc C2C12 luciferase reporter: 340 nM
Myostatin [2]
  myostatin-neutralizing activity IC50 (nM) vs. 4 nM myostatin; pMARE-luc C2C12 luciferase reporter: 51.1 nM
GDF-11
  GDF-11-neutralizing activity IC50 (nM) vs. 4 nM GDF-11; pMARE-luc C2C12 luciferase reporter: 89.9 nM
